Laboratory results reported in patent US20240173377A1 (published 2024).

Legend:
Experiment in all cases: HLA class II competition binding assay
HLA DRB1*0301 = HLA DRB1*0301 (human)
HLA DRB1*1301 = HLA DRB1*1301 (human)
HLA DRB1*1101 = HLA DRB1*1101 (human)
HLA DRB1*0101 = HLA DRB1*0101 (human)
HLA DRB1*0401 = HLA DRB1*0401 (human)
HLA DRB1*0701 = HLA DRB1*0701 (human)
HLA DRB1*1501 = HLA DRB1*1501 (human)

Q: How did the IC50 (HLA DRB1*0301) turn out when EEQYNSTYTVVSVLTVLHQD [SEQ ID NO 114] was run?
A: 1570 nM

Q: And the IC50 (HLA DRB1*1301)?
A: 1860 nM

Q: And the IC50 (HLA DRB1*1101)?
A: 84 nM

Q: And the IC50 (HLA DRB1*0101)?
A: 19 nM

Q: What about the IC50 (HLA DRB1*0401) of the same binder?
A: 1210 nM

Q: What about the IC50 (HLA DRB1*0701) of the same binder?
A: 115 nM

Q: What about the IC50 (HLA DRB1*1501) of the same binder?
A: 2110 nM
